Measurements as given in PMC2615004.

Molecular target: photosynthetic reaction center from Rhodobacter sphaeroides, native (strain R26) (Rhodobacter sphaeroides) (UniProt P0C0Y8)
Test: flash absorption spectroscopy

Substance “cytochrome c2 from Rhodobacter sphaeroides (from UniProt P0C0X8 1-124) (natural protein)” has a dH of 54 meV.
